Literature values, collected in publication PMC2613885.
pKd: −log10 of the molar value.

Biological target: Robo1 (Homo sapiens) (UniProt Q9Y6N7)
Sequence (Q9Y6N7 26-897): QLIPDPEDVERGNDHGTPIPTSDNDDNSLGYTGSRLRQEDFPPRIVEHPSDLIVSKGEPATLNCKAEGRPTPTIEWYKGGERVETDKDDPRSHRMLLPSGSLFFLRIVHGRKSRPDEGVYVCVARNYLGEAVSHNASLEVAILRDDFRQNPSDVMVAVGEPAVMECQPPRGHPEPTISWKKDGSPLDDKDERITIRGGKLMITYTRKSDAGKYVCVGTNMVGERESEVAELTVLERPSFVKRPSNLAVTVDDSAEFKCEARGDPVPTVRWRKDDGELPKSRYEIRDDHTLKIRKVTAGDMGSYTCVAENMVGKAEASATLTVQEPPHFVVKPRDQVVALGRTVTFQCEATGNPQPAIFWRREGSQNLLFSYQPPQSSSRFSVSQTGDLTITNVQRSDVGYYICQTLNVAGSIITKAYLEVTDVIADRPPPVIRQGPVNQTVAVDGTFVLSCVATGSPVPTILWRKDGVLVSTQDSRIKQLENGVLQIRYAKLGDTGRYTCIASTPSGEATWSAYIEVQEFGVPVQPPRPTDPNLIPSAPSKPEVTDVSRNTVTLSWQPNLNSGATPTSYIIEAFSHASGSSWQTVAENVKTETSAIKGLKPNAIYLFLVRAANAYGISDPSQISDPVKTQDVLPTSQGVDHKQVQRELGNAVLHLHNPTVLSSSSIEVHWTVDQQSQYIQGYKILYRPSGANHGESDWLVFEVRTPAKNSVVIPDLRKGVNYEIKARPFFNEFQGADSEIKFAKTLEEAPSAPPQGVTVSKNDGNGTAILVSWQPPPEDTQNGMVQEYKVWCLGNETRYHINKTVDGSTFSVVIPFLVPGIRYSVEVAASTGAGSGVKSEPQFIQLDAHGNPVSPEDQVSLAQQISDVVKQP

Sequence of Slit2 (O94813 31-1529): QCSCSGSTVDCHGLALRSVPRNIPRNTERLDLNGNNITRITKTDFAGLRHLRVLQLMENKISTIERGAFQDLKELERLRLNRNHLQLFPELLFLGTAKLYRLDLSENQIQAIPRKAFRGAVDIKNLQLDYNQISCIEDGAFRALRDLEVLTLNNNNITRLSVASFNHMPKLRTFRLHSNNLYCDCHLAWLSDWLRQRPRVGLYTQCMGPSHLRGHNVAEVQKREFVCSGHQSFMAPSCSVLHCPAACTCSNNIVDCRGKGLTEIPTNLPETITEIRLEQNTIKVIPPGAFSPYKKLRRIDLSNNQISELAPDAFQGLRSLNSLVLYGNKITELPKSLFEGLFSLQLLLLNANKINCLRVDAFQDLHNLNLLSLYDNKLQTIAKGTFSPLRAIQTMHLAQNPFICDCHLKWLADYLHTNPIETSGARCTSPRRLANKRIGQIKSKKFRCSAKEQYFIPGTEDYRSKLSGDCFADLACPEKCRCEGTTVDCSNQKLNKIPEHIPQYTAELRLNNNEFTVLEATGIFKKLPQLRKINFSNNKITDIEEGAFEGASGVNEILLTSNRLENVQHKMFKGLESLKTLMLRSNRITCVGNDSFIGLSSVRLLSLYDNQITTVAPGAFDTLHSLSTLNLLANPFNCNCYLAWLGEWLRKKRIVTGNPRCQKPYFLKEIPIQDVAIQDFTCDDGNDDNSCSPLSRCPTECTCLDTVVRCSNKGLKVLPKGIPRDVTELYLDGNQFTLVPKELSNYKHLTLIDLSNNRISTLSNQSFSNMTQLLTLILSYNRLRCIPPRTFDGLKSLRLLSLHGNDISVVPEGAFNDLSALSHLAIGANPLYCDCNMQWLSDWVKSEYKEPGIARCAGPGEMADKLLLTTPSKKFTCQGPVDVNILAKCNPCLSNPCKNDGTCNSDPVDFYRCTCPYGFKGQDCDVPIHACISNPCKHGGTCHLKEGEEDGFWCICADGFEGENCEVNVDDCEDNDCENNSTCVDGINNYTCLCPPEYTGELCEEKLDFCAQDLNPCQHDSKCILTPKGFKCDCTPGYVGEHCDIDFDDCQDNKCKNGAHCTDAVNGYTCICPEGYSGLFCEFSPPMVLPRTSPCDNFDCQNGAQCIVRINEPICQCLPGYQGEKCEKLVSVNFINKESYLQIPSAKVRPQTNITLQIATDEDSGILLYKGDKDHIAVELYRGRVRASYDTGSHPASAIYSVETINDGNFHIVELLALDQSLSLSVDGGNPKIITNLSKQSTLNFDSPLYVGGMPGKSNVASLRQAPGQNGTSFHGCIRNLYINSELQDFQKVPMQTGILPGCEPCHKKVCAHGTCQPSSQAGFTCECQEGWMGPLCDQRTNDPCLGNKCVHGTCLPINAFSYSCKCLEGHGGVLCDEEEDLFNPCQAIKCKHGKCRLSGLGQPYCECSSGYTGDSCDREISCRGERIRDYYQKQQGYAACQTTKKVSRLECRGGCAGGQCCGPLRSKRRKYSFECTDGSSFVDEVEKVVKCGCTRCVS

pKd: 8.05
Substance: Slit2 (from UniProt O94813)
